Molecular target: prefusion-stabilized SARS-CoV S ectodomain trimer (SARS-CoV 2P S) (SARS-CoV Urbani (AAP13441), UniProt P59594, stabilised)
Assay: BLI

B1: B6 monoclonal antibody (recombinant IgG with human constant regions) (antibody, V domains shown)
VH: EVQLQQSGPVLVKPGASVRMSCKASGYTITDYYLNWVKQSHGKSLEWLGVLNPYSGGSLYSQTFKGKATLTVDRSSSTAYLELNSLTSEDSAVYYCARQLGRGNGLDYWGQGTSVTVSS
VL: NIMMTQSPSSLAVSAGEKVTMSCKSSQSVLHSSDQKNYLAWYQQKPGQSPKLLIYWASTRESGVPDRFTGSGSGTDFTLTISSVQAEDLAVYFCHQYLSSYTFGGGTKLEIK
  binding result: binds

Reference: article PMC7781312 (bioRxiv, 2021)
